{"source": "ChEMBL document CHEMBL2074389", "about": "“Isolation of a multispecific organic anion and cardiac glycoside transporter from rat brain” (Proc Natl Acad Sci U S A, 1997)", "molecules": {"B1": {"name": "Solute carrier organic anion transporter family member 1A4 (Rattus norvegicus) (protein)", "chain": "MGKSEKRVATHGVRCFAKIKMFLLALTCAYVSKSLSGTYMNSMLTQIERQFGIPTSIVGLINGSFEIGNLLLIIFVSYFGTKLHRPIMIGVGCAVMGLGCFLISLPHFLMGQYEYETILPTSNVSSNSFFCVENRSQTLNPTQDPSECVKEMKSLMWIYVLVGNIIRGIGETPIMPLGISYIEDFAKSENSPLYIGILETGMTIGPLIGLLLASSCANIYVDIESVNTDDLTITPTDTRWVGAWWIGFLVCAGVNILTSFPFFFFPKTLPKEGLQENVDGTENAKEKKHRKKAKEEKRGITKDFFVFMKSLSCNPIYMLFILISVLQFNAFINSFTFMPKYLEQQYGKSTAEVVFLMGLYMLPPICLGYLIGGLIMKKFKVTVKKAAHLAFWLCLSEYLLSFLSYVMTCDNFPVAGLTTSYEGVQHQLYVENKVLADCNTRCNCSTNTWDPVCGDNGLAYMSACLAGCEKSVGTGTNMVFQNCSCIQSSGNSSAVLGLCNKGPDCANKLQYFLIIAIFGCFIYSLAGIPGYMVLLRCIKSEEKSLGVGLHAFCIRILAGIPAPIYFGALIDRTCLHWGTLKCGEPGACRMYDINSFRRLYLGLPAALRGASFVPAFFILRLTRTFQFPGDIESSKTDHAEMKLTLKESECTEVLRSKVTED"}}, "assay_type_in_all_cases": "functional, cell-based, Oocyte", "key": {"[1]": {"molecular_target": "T1, Solute carrier organic anion transporter family member 1A4 (SLCO1A4, OATP1A4) (Rattus norvegicus, UniProt O35913)", "T1 sequence (O35913 whole entry)": "B1 chain", "experiment": "(§1) TP_TRANSPORTER: uptake in Xenopus laevis oocytes", "conditions": "Xenopus laevis oocytes expressing the transporter"}, "[2]": {"molecular_target": "T2, Solute carrier organic anion transporter family member 1A4 (Rattus norvegicus, UniProt O35913)", "T2 sequence (O35913 whole entry)": "B1 chain", "experiment": "as §1", "conditions": "oocyte"}, "[3]": {"substrate": "C[C@H]1O[C@@H](O[C@H]2[C@@H](O)C[C@H](O[C@H]3[C@@H](O)C[C@H](O[C@H]4CC[C@@]5(C)[C@H](CC[C@@H]6[C@@H]5C[C@@H](O)[C@]5(C)[C@@H](C7=CC(=O)OC7)CC[C@]65O)C4)O[C@@H]3C)O[C@@H]2C)C[C@H](O)[C@@H]1O", "experiment": "as §1"}, "[4]": {"substrate": "C[C@]12CC[C@@H]3c4ccc(O)cc4CC[C@H]3[C@@H]1CC[C@@H]2O[C@@H]1O[C@H](C(=O)O)[C@@H](O)[C@H](O)[C@H]1O", "experiment": "as §1"}, "[5]": {"substrate": "C[C@]12CC[C@@H]3c4ccc(OS(=O)(=O)O)cc4CC[C@H]3[C@@H]1CCC2=O", "experiment": "as §1"}}, "data": [{"molecule": "C[C@@H]1O[C@@H](O[C@H]2C[C@@H](O)[C@]3(CO)[C@H]4[C@H](O)C[C@]5(C)[C@@H](C6=CC(=O)OC6)CC[C@]5(O)[C@@H]4CC[C@]3(O)C2)[C@H](O)[C@H](O)[C@H]1O", "note": "[OUABAIN]", "values": [{"measurement": "Km", "setting": "[1]", "result": 470, "unit": "µM"}]}, {"molecule": "CN(Cc1cnc2nc(N)nc(N)c2n1)c1ccc(C(=O)N[C@@H](CCC(=O)O)C(=O)O)cc1", "note": "[METHOTREXATE]", "values": [{"measurement": "Activity", "setting": "[2]", "result": "is not a substrate [-]"}]}, {"molecule": "B1", "values": [{"measurement": "Km", "setting": "[3]", "result": 0.24, "unit": "µM"}, {"measurement": "Km", "setting": "[4]", "result": 3, "unit": "µM"}, {"measurement": "Km", "setting": "[5]", "result": 11, "unit": "µM"}]}]}
